This is an account of results in paper PMC9597381, “Molecular determinants of TRAF6 binding specificity suggest that native interaction partners are not optimized for affinity” (Protein Science : A Publication of the Protein Society, 2022).

For experiment [1], the target named is T1, monomeric TRAF6 (T6m), TRAF6 MATH domain (Homo sapiens, UniProt Q9Y4K3).
T1 construct: (human TRAF6 residues 350-501) – LE – HHHHHH; made in house; host or cells: E. coli Rosetta2(DE3)
T1 sequence (Q9Y4K3 350-501): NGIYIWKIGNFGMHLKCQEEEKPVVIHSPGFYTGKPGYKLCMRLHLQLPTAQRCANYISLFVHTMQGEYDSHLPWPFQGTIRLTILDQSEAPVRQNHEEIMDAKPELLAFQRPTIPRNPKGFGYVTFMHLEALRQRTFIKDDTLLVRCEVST
Nature of the experiment: Biolayer interferometry (BLI), SUMO-peptide on tip, TRAF6 monomer in solution. As to conditions: biotinylated SUMO-peptide on streptavidin tip, T6m in solution up to 150 μM; 20 mM Tris pH 8.0, 207 mM NaCl; room temperature; steady-state fit; average of 3 replicate binding curves ± SEM. The source says:
To further validate the cell‐surface interactions identified in the screen, we measured TRAF6‐peptide binding by biolayer interferometry (BLI), using purified monomeric TRAF6 MATH domain (construct termed T6m) in solution and purified peptides attached to the sensor tip (see Table S1 for construct details). […] The BLI data validate the cell‐surface display results and support the conclusion that top hits from the screen bind with higher affinity than CD40*, which is one of the tightest known TRAF6 peptide binders[19] (Figure 3). Based on these observations, we conclude that despite the screening assay being performed in the environment of the cell surface, and in a multi‐valent context, enrichment sorting returned high‐affinity binders.
Vectors, bacterial cells, and cloning: The expression constructs and cell surface display constructs are detailed in Table S1. The TRAF6 trimeric construct, here termed T6cc, consisted of residues 310–504 of human TRAF6 (including the MATH domain and coiled‐coil trimerization domain), an N‐terminal BAP tag for biotinylation, and a hexahistidine tag for purification. The construct was expressed using a pDW363 vector to ensure biotinylation. A monomeric TRAF6 construct lacking the trimerization domain and BAP tag, here termed T6m, consisted of residues 350–501 of human TRAF6 and a hexahistidine tag. The construct was expressed in a pDW363 vector, although the lack of a BAP tag ensured no biotinylation of this protein. SUMO‐peptide fusion constructs contained a BAP tag, hexahistidine tag, and SUMO tag. The construct was expressed in a pDW363 vector to ensure biotinylation. E. coli strains BL21(DE3), DH5α, and MC1061 were used for protein expression, cloning, and surface display, respectively. For bacterial surface display of TRAF6‐binding peptides, the eCPX vector designed by the Daugherty group[56] was modified at the C‐terminus to append a FLAG sequence, a linker containing a SfiI site, and the CD40* peptide sequence, which included 9 residues resolved in the X‐ray structure of CD40* bound to TRAF6 (PDB ID: 1LB6[19]) plus 8 flanking residues on each side of this core region. The CD40*‐derived sequence used was […].
Protein purification and preparation: T6cc was co‐expressed with the biotin ligase BirA (from the pDW363 vector) in BL21(DE3) E. coli for 5 hours at 37°C. Media was supplemented with 0.05 mM D‐(+)‐biotin. The protein was then purified using Ni^2+‐NTA affinity chromatography followed by gel‐filtration chromatography into a final buffer of 20 mM Tris pH 8.0, 150 mM NaCl, 5% glycerol, 1 mM DTT. Purified protein was concentrated before storing at −80°C in aliquots for later use. Concentrations of T6cc are reported as monomer concentrations. […]
On the technique in general: In BLI a coated tip is dipped into the sample, and binding shifts an interference pattern.

Experiment [2] concerns the target RANK peptide (Homo sapiens). As to the kind of experiment: ITC. As to conditions: cited from earlier work.
Experiment [3] addresses TRAF6. As to conditions: reported affinity for TRAF6, ITC; read-out: Kd by isothermal titration calorimetry; cited from earlier work. The source says:
High‐affinity TRAF6 binders isolated in this work can serve as lead peptides for inhibitor development. TRAF6 signaling is implicated in inflammation and cardiovascular disease.[12], [13], [18] Targeting TRAF6 MATH is reported to improve insulin sensitivity in obese mice, improve heart function in mouse models of non‐ischemic cardiac failure, reduce atherosclerosis, and inhibit osteoclastogenesis and bone resorption.[14], [15], [16], [17] A RANK peptide attached to a protein transduction sequence to promote cell entry is currently sold commercially as a TRAF6 inhibitor (e.g., Novus Biologicals ...
On the technique in general: In ITC the heat of successive injections is recorded.

Experiment [4] deals with T2, TRAF6 trimeric construct T6cc (coiled-coil and MATH domains) (human, UniProt Q9Y4K3 310-504, biotin on the BAP tag).
T2 chain: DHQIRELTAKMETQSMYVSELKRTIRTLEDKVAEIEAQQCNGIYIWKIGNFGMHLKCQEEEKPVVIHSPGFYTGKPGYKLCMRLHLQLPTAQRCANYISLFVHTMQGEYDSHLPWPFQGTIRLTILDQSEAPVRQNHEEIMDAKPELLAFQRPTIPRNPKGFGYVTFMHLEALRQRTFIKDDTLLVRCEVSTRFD
As to the kind of experiment: FACS. On the technique in general: Flow cytometry measures light scatter and fluorescence of single cells or particles in a stream.

Experiment [5] has as its target T2, TRAF6 trimeric construct T6cc …. As to the kind of experiment: FACS; apparent Kd*, cell-surface display.
Experiment [6] has as its target biotinylated SUMO-peptide fusion of …. Nature of the experiment: BLI; biotinylated SUMO-peptides immobilised on streptavidin tips, T6m in solution; room temperature; 20 mM Tris pH 8.0, 207 mM NaCl, 1 mM DTT, 1% glycerol, 0.1% BSA, 0.1% Tween-20; steady-state fit, SUMO-only control subtracted.
Experiment [7] concerns the target biotinylated SUMO-peptide fusion of CD40* (…) (human). The experiment is described as above.
For experiment [8], the target named is … peptide displayed on E. coli via eCPX (human). Nature of the experiment: flow cytometry on cells; single-clone titration: biotinylated T6cc (0 nM to 3 uM, eight concentrations) on peptide-displaying E. coli, 4°C 60 min in PBS + BSA, detected with streptavidin-PE; apparent cell-surface constant Kd*, multivalent, not likely at equilibrium.
Experiment [9] deals with T3, TRAF6 trimeric construct T6cc (coiled-coil and MATH domains) (human, UniProt Q9Y4K3 310-504, biotin on the BAP tag).
T3 construct: human TRAF6, residues 310-504, including the coiled-coil trimerization domain and the MATH domain; Expressed from a pDW363 vector; Concentrations of T6cc are reported as monomer concentrations; also called trimeric TRAF6; biotinylated TRAF6 homotrimers; source: E. coli BL21(DE3), co-expressed with BirA, purified (Ni-NTA, gel filtration); not shown: BAP tag, N-terminal, kept
T3 sequence (looked up): T2 chain
Described as above. As to conditions: one partner purified.

“And” between values parts separate entries of the source, which are not always exact repeats. Equal values may be shown once.

In turn, LNLPEESDW had a Kd in [1] of 27500 nM.
On to TRAF6 (from UniProt Q9Y4K3), for which, in experiment [2], the Kd is 78000 nM.
RNVPEESDW registered a Kd in [1] of 24000 ± 3800 nM.
In the case of KQEPQEIDF [CD40*, reference compound], the values for the Kd in experiment [1] and in [3] were 240000 ± 23000 nM and 84000 nM, respectively.
TNWPEENDW gave a Kd in [1] of 37200 nM.
For the molecule LQLPEENDW, the Kd in experiment [4] and in experiment [5] was 498 nM throughout.

B1: TRAF6 monomeric MATH domain construct T6m (domain or fragment)
chain: T1 sequence (Q9Y4K3 350-501)
For the molecule B1, the Kd in experiment [6] was 37000 nM and 28000 nM and 24000 nM; in experiment [7], 240000 nM.
Consider SPVPEESTW, for which the Kd in experiment [4] and in [5] was 332 nM each time.

B2: TRAF6 trimeric construct T6cc (coiled-coil and MATH domains) (domain or fragment)
chain: T2 chain
modifications: biotin on the BAP tag
On to B2, for which the Kd in [8] was 84 nM and 46 nM and 31 nM.
With MNAPVESDW, the Kd in experiment [4] and in [5] was 110 nM throughout.

B3: CD40* peptide (KQEPQEIDF with 8 flanking CD40 residues on each side) displayed on E. coli via eCPX (peptide)
peptide: PTNKAPHPKQEPQEIDFPDDLPGSNT
notes: 9 residues resolved in PDB 1LB6 plus 8 flanking residues on each side; also called KQEPQEIDF (CD40*); not shown: eCPX (re-engineered OmpX), N-terminal, kept; FLAG, N-terminal, kept
Take B3: the Kd in [9] stood at 1200 nM.
As for GKYPEENDW, the Kd in experiment [4] and in experiment [5] was 240 nM each time.
For QNLPTESDW, the Kd in experiment [4] and in experiment [5] was 45.2 nM throughout.
On to HNIPTETSW, for which the Kd in [4] and in experiment [5] was 186 nM throughout.
Regarding RNVPEEIYW, the Kd in experiment [4] and in experiment [5] was 260 nM in each case.
With RNWPTETDW, the Kd in experiment [4] and in experiment [5] was 58.3 nM throughout.
Turning to TRMPVESDW, the Kd in experiment [4] and in experiment [5] was 169 nM each time.
Consider PQDPVETFW, for which the Kd in [4] and in experiment [5] was 374 nM throughout.
As to TYGPVENSW, the Kd in [4] and in experiment [5] was 581 nM each time.
